Results taken from a protein production outcome set (Wang et al. 2014).

Assay: label from the status in PepcDB records
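Further: failed if final PepcDB status was selected cloned or expressed and not failed if soluble or beyond.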

Sequence	protein production
MGNVGLLFVGAVLFMNGLLLLGKVDAKAAAVFNLFIGALQVLTPTYLIFTANGDPMKILAASGIYLFGFTYLYVGIGLLTGLDSTGVGYYSLFVAVAALGYSFVNFRLFKDYPFGVIWLYWAYLWFLFFLLLGLKKDDLKIYTGWVTAIEGWVTGAIPAGLLLSGYWKHPTETAIALAVFGVVVFVGLWPRTHRTPRPTSAAPRTGGVGAPT	failed
MGDPFLIGGVIIACFVAFNIGGATTGPAFGPAVGANVLSKTTAGALMAVAFFGGAYTIGRRVVDTLGTELVHDPSVFTLEASIIVLFFIGGALLVGNLSGAPASTSMTAVGAIIGLGLASGELNFAVVGEILAWWILSPIIGFWLAVMVGRYGYEALDRRVAIEQSDGPLLAFERVELGRWPVVRLRESPVVRMERISPKLWPALGPNTSWREAVGTAVLVSIGFLMAFSSGTSNIANAIAPLVGSGALAMNPGILIGCGAVAVGALTIARRTMETLGNDITDLPLTAAIVVALLSSLIIIALSALGIPASFVVVATLCIIGLGWGRSTQAVSVAEAVRGDVSPQVSVGALARGDDATVGTVRSQSAPQGASRRTAPVRSDLFDPGTSVRVVLMQNVVPLLATGGSYLTFWLLPVGG	failed
MYELTEDFKLRKITKYELDGVDEREDLLVIPPSSKAGPCGNGCLFCYLLQNPPEMIYRVARHDTLNDPTLEERIRYARKHYDLWIRVTDTSGNVKFDENRIKSLYEAGLDEIQISVHTTKKDVRIKLMRNRHAGKLIDLLPLVAKHFRTIADIILTPGFNVDDIGEIIEDLDSMGVHEVRLFPVGVTKYNRFEIRPLTKEE	failed
MTTVIVANDLVGFGKVALTSSLLPIMSACQTEVLPLPTVLLSSHTGEFDNIYVRYLTVDMQGFCGQWKRLDFRVDGLVGGYFKSEEELGLVSQCLTKKRFLFLLDPIMGDNGRLYQGFDRDYVEAMKDFCQQADVIIPNLTEAALLTGSPYLEEGSYDMTTIENLLRNLSRLGPRKVILTGISFETEKIGLAYFDKETNQVIYRMRKRYQSHFYGSGDLLTAILSAGYFHNLDFLKVCDLALDFLNKVLLFTLSSGRPLKYGLCYEPLYRLFILEHHHHHH	not failed
MISNNPNHTEYDTWAWLYNQTMGPEYSQNQLKPLEKILLPQIKPNAKILDLCCGTGQLVQTLINRGYQITGVDNSSEMLNYARKNAPNGQFLLADARYFELPLSFDAAFSTSAALNHIMTIPELQQVFQRVYSALKENGWFLFDINHHQQMQRWWRGKIAEGEIENKYAWMVTPNYNPEERQGYFQVTMFQKKTKPSSARIIKIIWRLLSPILNHNLLYKLRIKLLSVFQAKEKNWQRMDEKYFVRGHIPEEIKIALQQTGFTDIQILTLEGNPTIDDRHSAYFLCRKPVNI	failed
MSVTTTETTGTAPALPRKTLGLAMIGLAVMMTLLHYAGLLPAWLHRLPEAIIPPFATWLDAIFNFVKDDLGLLALTRLLTDGLEVVLDATANLLFGKRRWPNIGPIPWSAIAAMTAVVGYYLGGWRMALLAGGTFVWTAMIGQWDIAMQTMSVLVVAAPLAFAIGLVLGISAWKSPSFDAVLRPVLAVLQTLPFFTYLLPAVIFFKVGPTAGAVATTVYAIPPMILMTTLGLQKVSPEVVEAGKMSGCTRWQMLRHVYIPAARTEILVGVNQVIMLCLAMVVLTAFIGMPGLGAKLLAMMGSFKIGRSFEIGVTIVLLAVTLDRMSKAWVVKLPEHFERGTPFWIRHKFLLMAIGAFVGFTLIAQVVPILSEVGRKQSWSQGKEIDTLIKGFLAIDAVQAITNSIRYVLNIWVLNPLRDFMLSIPTVAFVLFISAAALLVAGRREAVLAAAFFGLVALTGWWDRSVITLYSVLAAVSIALLLGVPIGVVAARKEKTANAVLLACDTAQTFPSFIYLIPAIMLFGITATSVVMSILIFSMVPLVRYTIEGLRNVPDEMTEAADMAGATRMQKLWNVQLPLALPTMAVGFNQAIMFAFFMVIIAAFIGTQDLGQELQRTLAGTDLGKNFVLGICVTLMALTFDMVIMKWADDKKARLGLN	failed
MNQTKTTDDNNNNSKPDETESTTTVPEWITETINGGSFHHVDLETGTNGWASPPGNVFSLRSNNYFTTKQKSPGGDYLLSLIAVDWLKSTTKKLDHILCRPDNRVIHALETSQSRSFIFAVNFQIPGKEHYHLVLYFATEKPIPSDSILHKFINIDDDSFRNERFKVVTNVVKGPWVVKATAGKLGAFLAGKVVKCSYYRGANYFEVDVDFSISAIYSALVRLTLGYVTNLVADVGFVVEAQTEEELPERLIGGGRVCYMELSSAFLVDDGKKMGAAEGNHSEDEI	failed
MGFFDSGIGGMTVLYEAIKVLPYEDYIFYADTLNVPYGEKSKGKVKEYIFNAAEFLASQNIKALVIACNTATSIAIEDLRRNFDFPIIGIEPAVKPAINKCTEERKRVLVVATNLTLKEEKFHNLVKEIDHHDLVDCLALPGLVEFAENFDFSEDKIIKYLKNELSSFDLKQYGTIVLGCTHFPFFKNSFEKLFGIKVDMISGSVGTAKQLKKVLADRNQLGKGSGSITFFNSGHKIVDQEVISKYKRLFEILDETQRSHVGH	failed
MIRIKTPSEIEKMKKAGKAVAVALREVRKVIVPGKTAWDVETLVLEIFKKLRVKPAFKGYGGYKYATCVSVNEEVVHGLPLKEKVFKEGDIVSVDVGAVYQGLYGDAAVTYIVGETDERGKELVRVTREVLEKAIKMIKPGIRLGDVSHCIQETVESVGFNVIRDYVGHGVGRELHEDPQIPNYGTPGTGVVLRKGMTLAIEPMVSEGDWRVVVKEDGWTAVTVDGSRCAHFEHTILITENGAEILTKEG	not failed
MKTINIVAGGPKNLIPDLTGYTDEHTLWIGVDKGTVTLLDAGIIPVEAFGDFDSITEQERRRIEKAAPALHVYQAEKDQTDLDLALDWALEKQPDIIQIFGITGGRADHFLGNIQLLYKGVKTNIKIRLIDKQNHIQMFPPGEYDIEKDENKRYISFIPFSEDIHELTLTGFKYPLNNCHITLGSTLCISNELIHSRGTFSFAKGILIMIRSTDLEHHHHHH	not failed
MFLVLCSVMIFIGFLLQIYVWPRIPKSIFKYRGLVLSISLIILIFVVRIPLEITALTLPFYLMMFFGLFLFWKDRKL	failed
MANKNFSLTVYDSEYMETNNKIYQENMEKKIRTISEFPDKVLLKILSLLPSKDVVATGVLSKRWRSLWKDVKTFRTSSVESLQLKINPSATNKDIQSLVNMAVARSMRELRIEMICKNFELPKSFYMFSQLETVILDKVSLMDPPPDVHLPCLKRLHLLSVNSLTNVMIFTIDVPTLRILSIDNTSGKSRPKGVHGFVINTPSLSVNVVFDNPYKFLAPLGSTQYLSLCSVTSHTTYRPAVFSFIFLDHLELCLCSAEQWNLLTRILNYAPRLRVLQLKLYHKHCVKDTKNLMGNQPDLIPKSLSSHLEILEWRQYNDTAQEREAAKYILANASGLRKATFYTESTEKHGMLKEVRMCGQRFKNMSACVK	failed
MGLKPSEVIELWPVKIFFIILSVTLFYNFALANGALEKLASHLLYKCRKFPQFLPLAIFFAATIIAGLGAGFYTVLAFMAPITLLLCKKTNMNMIIGGMAANYGALAGANFMTSQSGIIFRSLMENTGISSQTAFSYSSGIFVLTLIIPIAVLGIYTLWNRKSNSIVIEDQKPEPFDKKQKQSIFLIILMMSIVLVFPILHLVFPDVKTISFLNSKIDIAFLAITFSLISLLMKLADEKKVIALVPWRTLIMICGVGMLIALGVKLGIITTLSEWLANNVPVWVIPVLLCLISAIMSVFSSTLGVVAPTLFPIVPALALTSGLNPLVLFICIVVGAQSTAISPFSSGGSLIMASAPADIDKTKFFNQLLFKAIPVGVIAALIAIFALKFVI	failed
MLRLYKTIGRFNLINFQEDYPMKILVVGTGAREHAICSALADEATIYSVMGNRNPGISRLAGNSLLLLKLTPKVVRFASEKGVDMAFIGPEAHLEAGLVDALEEAGIPSVGPTRDAARIETDKSFMRKLFEDYRIPGSITYRVFSDPEELREFMEDFDSEAVVKPVGLTGGKGVKIVGEHLRDNMEALKYATEVIEKRIGGHPSVVIEERVVGEEFTVQAFSDGEHIVPMPAVQDHPHAYEGDQGPITGGMGSYSDSDGLLPFLTQKDYEDAVEIMQRTVDAIRKETGPYRGILYGQFMLSADGPKLIEYNARFGDPEAMNVLPLLESSMLEICEGIVDGNLKSASFMNLATVCKYLVPEGYPESGVAGAEIKVDEKKIEDMGVITYYAAVNQEDDHIYTSSSRALALVAPADDIYSAEELCEEATAHVKGRLYHRRDIGTRELVEKRIKHMEDLRS	failed
MEESLKVGIAGLGTVGSSVVRILREKANSLTCQCGRSIKVVAVSARDKSRNRGIDLSDVKWFDSPVEMASSDEIDVFVELIGGESDVVYAAVKKALETGHHVVTANKALLAQHGGRLAVSAEKKGVFLHFEAAVAGGIPIIKVMRESLVSNHISRIYGILNGTCNYILTRMFTEGLSFKECLEDAQRLGYAEVDPTFDIGGNDTAHKLALLTSLAFGTAVSLDDIYVEGISNISQIDIRAADELGYRIKLLGVALKTETGIEQRVHPTMVPTSSMIAQIHGVTNALSIQSDLLGELLLSGPGAGGTATASAVIGDLADIAKARPGFQYAPVLGRPALGLAPHKKARISHHAGGYFIRLNVHDRAGVFAAVAKHMAGNHISLESIVQRSFVESQSVKTIILITHETTEVNVQQALAAIEKDGHLVAKSQFIRIEPMVLEHHHHHH	failed
MLLLTPGPTPIPERVQKALLRPMRGHLDPEVLRVNRAIQERLAALFDPGEGALVAALAGSGSLGMEAGLANLDRGPVLVLVNGAFSQRVAEMAALHGLDPEVLDFPPGEPVDPEAVARALKRRRYRMVALVHGETSTGVLNPAEAIGALAKEAGALFFLDAVTTLGMLPFSMRAMGVDYAFTGSQKCLSAPPGLAPIAASLEARKAFTGKRGWYLDLARVAEHWERGGYHHTTPVLLHYALLEALDLVLEEGVAARERRAREVYAWVLEELKARGFRPYPKASPLPTVLVVRPPEGVDADRLVRALYAEGVAVAGGIGPTRGQVLRLGLMGEGARREAYQAFLKALDRALALA	not failed
MKFFFLLQIALILLSNSSLLFGQSPPKEKEDSLLLYKEGKFKEAILNTLEEIRLNPSNLDARTILIWSLIAIGEYKRAEKEAIIGLGIKKHDIRIIQALGEAYFFQKNYDNALKYFQEYISLDSKGARIIKVYNLIADSFYELKRYNEADFAYEHALRFSPNNQNLLIKLARSRINAKNKILAEEALIKILTISPNNLEAKNLLEELKKSNNKP	failed
MISGFSMHSSAHYRQLLARLPQIAVAADQFEVLNSAKDFKSRILSLIASARQRIYLVALYLQDDEAGREILSALYAAKQRNPALDVKVFVDFHRAQRGLIGKGKQGGNHLMYQEMAARHEHQIAIYGVPVKGRELLGVLHLKGFIFDDTLLYSGASLNDIYLHQQDRYRFDRYHQITSPELTRSMVNYVDDLFLRSEAVQRLDRTDIPSAKQLKGPIRRFKHNLRLGQYRFDTMPVNSQEVAITPMSGLGKRGNQLNKMIRTLVRATEREIFICTPYFNPPKELNKDIEALLKRGCKVTIVVGDKTANDFFIPPEEKFSTIGGLPYLYETNLRKFAERNQHHIDAGRLNLMLWCCERNSYHLKGIFVDDEWALLTGNNLNPRAWALDLENGLLVYDRRHLLRPQFNAERENILANTKRISHFDQIEQIQDYPDQVRKLLARIHRVKAHILLKRII	failed
MHMQLKGKTALVTGSTAGIGKAIATSLVAEGANVLINGRREENVNETIKEIRAQYPDAILQPVVADLGTEQGCQDVIEKYPKVDILINNLGIFEPVEYFDIPDEDWFKLFEVNIMSGVRLTRSYLKKMIERKEGRVIFIASEAAIMPSQEMAHYSATKTMQLSLSRSLAELTTGTNVTVNTIMPGSTLTEGVETMLNSLYPNEQLTIEEAEKRFMKENRPTSIIQRLIRPEEIAHLVTFLSSPLSSAINGSALRIDGGLVRSVF	not failed
MLIFKIFRRSEWDDFRRAGATAGAPVDLADGYIHFSTAAQVAETAAKHFTAESDLVLVAIDPDRAGPDLKWEPSRGEQLFPHLYRRLTLDDVVWDKSLPLGATGHIFPEGLWLEHHHHHH	not failed
